Laboratory results published in patent US20150057236.

B1: human Sirt1 (protein)
chain: MADEAALALQPGGSPSAAGADREAASSPAGEPLRKRPRRDGPGLERSPGEPGGAAPEREVPAAARGCPGAAAAALWREAEAEAAAAGGEQEAQATAAAGEGDNGPGLQGPSREPPLADNLYDEDDDDEGEEEEEAAAAAIGYRDNLLFGDEIITNGFHSCESDEEDRASHASSSDWTPRPRIGPYTFVQQHLMIGTDPRTILKDLLPETIPPPELDDMTLWQIVINILSEPPKRKKRKDINTIEDAVKLLQECKKIIVLTGAGVSVSCGIPDFRSRDGIYARLAVDFPDLPDPQAMFDIEYFRKDPRPFFKFAKEIYPGQFQPSLCHKFIALSDKEGKLLRNYTQNIDTLEQVAGIQRIIQCHGSFATASCLICKYKVDCEAVRGDIFNQVVPRCPRCPADEPLAIMKPEIVFFGENLPEQFHRAMKYDKDEVDLLIVIGSSLKVRPVALIPSSIPHEVPQILINREPLPHLHFDVELLGDCDVIINELCHRLGGEYAKLCCNPVKLSEITEKPPRTQKELAYLSELPPTPLHVSEDSSSPERTSPPDSSVIVTLLDQAAKSNDDLDVSESKGCMEEKPQEVQTSRNVESIAEQMENPDLKNVGSSTGEKNERTSVAGTVRKCWPNRVAKEQISRRLDGNQYLFLPPNRYIFHGAEVYSDSEDDVLSSSSCGSNSDSGTCQSPSLEEPMEDESEIEEFYNGLEDEPDVPERAGGAGFGTDGDDQEAINEAISVKQEVTDMNYPSNKS
hydrolysis of acyl peptide (LC-MS) (H3K9 malonyl peptide): but not the malonyl and succinyl peptides
Km for acetyl peptide (H3K9 acetyl peptide): 38 µM
hydrolysis of acyl peptide (LC-MS) (H3K9 acetyl peptide): Sirt1 catalyzed the hydrolysis of the acetyl peptide
kcat (H3K9 acetyl peptide): 0.039 s⁻¹
kcat/Km (s^-1M^-1) (H3K9 acetyl peptide): 1000 s^-1M^-1
hydrolysis of acyl peptide (LC-MS) (H3K9 succinyl peptide): but not the malonyl and succinyl peptides

B2: human Sirt3 (protein)
chain: ISFSVGASSVVGSGGSSDKGKLSLQDVAELIRARACQRVVVMVGAGISTPSGIPDFRSPGSGLYSNLQQYDLPYPEAIFELPFFFHNPKPFFTLAKELYPGNYKPNVTHYFLRLLHDKGLLLRLYTQNIDGLERVSGIPASKLVEAHGTFASATCTVCQRPFPGEDIRADVMADRVPRCPVCTGVVKPDIVFFGEPLPQRFLLHVVDFPMADLLLILGTSLEVEPFASLTEAVRSSVPRLLINRDLVGPLAWHPRSRDVAQLGDVVHGVESLVELLGWTEEMRDLVQRETGKLDGPDK
Km for acetyl peptide (H3K9 acetyl peptide): 50 µM
kcat (H3K9 acetyl peptide): 0.012 s⁻¹
kcat/Km (s^-1M^-1) (H3K9 acetyl peptide): 240 s^-1M^-1

B3: human Sirt7 (protein)
chain: MAAGGLSRSERKAAERVRRLREEQQRERLRQVSRILRKAAAERSAEEGRLLAESADLVTELQGRSRRREGLKRRQEEVCDDPEELRGKVRELASAVRNAKYLVVYTGAGISTAASIPDYRGPNGVWTLLQKGRSVSAADLSEAEPTLTHMSITRLHEQKLVQHVVSQNCDGLHLRSGLPRTAISELHGNMYIEVCTSCVPNREYVRVFDVTERTALHRHQTGRTCHKCGTQLRDTIVHFGERGTLGQPLNWEAATEAASRADTILCLGSSLKVLKKYPRLWCMTKPPSRRPKLYIVNLQWTPKDDWAALKLHGKCDDVMRLLMAELGLEIPAYSRWQDPIFSLATPLRAGEEGSHSRKSLCRSREEAPPGDRGAPLSSAPILGGWFGRGCTKRTKRKKVT
hydrolysis of acyl peptide (LC-MS) (H3K9 malonyl peptide): Sirt6 and Sirt7 have no detectable activity on acetyl, malonyl, or succinyl peptides under the conditions tested
hydrolysis of acyl peptide (LC-MS) (H3K9 acetyl peptide): Sirt6 and Sirt7 have no detectable activity on acetyl, malonyl, or succinyl peptides under the conditions tested
hydrolysis of acyl peptide (LC-MS) (H3K9 succinyl peptide): Sirt6 and Sirt7 have no detectable activity on acetyl, malonyl, or succinyl peptides under the conditions tested

B4: human Sirt2 (protein)
chain: MAEPDPSHPLETQAGKVQEAQDSDSDSEGGAAGGEADMDFLRNLFSQTLSLGSQKERLLDELTLEGVARYMQSERCRRVICLVGAGISTSAGIPDFRSPSTGLYDNLEKYHLPYPEAIFEISYFKKHPEPFFALAKELYPGQFKPTICHYFMRLLKDKGLLLRCYTQNIDTLERIAGLEQEDLVEAHGTFYTSHCVSASCRHEYPLSWMKEKIFSEVTPKCEDCQSLVKPDIVFFGESLPARFFSCMQSDFLKVDLLLVMGTSLQVQPFASLISKAPLSTPRLLINKEKAGQSDPFLGMIMGLGGGMDFDSKKAYRDVAWLGECDQGCLALAELLGWKKELEDLVRREHASIDAQSGAGVPNPSTSASPKKSPPPAKDEARTTEREKPQ
Km for acetyl peptide (H3K9 acetyl peptide): 190 µM
kcat (H3K9 acetyl peptide): 0.03 s⁻¹
kcat/Km (s^-1M^-1) (H3K9 acetyl peptide): 160 s^-1M^-1
